# Experimental data as given in paper PMC10641286.
# Like-named read-outs stand apart in the source and are kept apart here.
# Experiments:
# cathepsin G [1] = target: cathepsin G (UniProt P08311)
# chymase [2] = target: chymase (UniProt P23946)
# trypsin IV = trypsin IV (UniProt P35030)
# chymase [3] = target: chymase (UniProt P23946); remark: listed apart in the source
# cathepsin G [4] = target: cathepsin G (UniProt P08311); test: stoichiometry of inhibition (residual enzymatic activity, colorimetric substrate); various concentrations of rIxsS41 (molar ratios 0-10) with a constant concentration of protease, 1 h at 37°C; linear regression of the inhibitory curve; settings: scale: molecules of rIxsS41 per molecule of protease
# chymase [5] = target: chymase (UniProt P23946); test: as above; settings: scale: molecules of rIxsS41 per molecule of protease
# cathepsin G [6] = target: cathepsin G (UniProt P08311); test: second-order rate constant of inhibition, discontinuous method (residual enzymatic activity); rIxsS41 25-300 nM (chymase) or 100-1600 nM (cathepsin G) pre-incubated 0-15 min at 37°C with constant protease (0.1 µg); kobs plotted against rIxsS41
# chymase [7] = target: chymase (UniProt P23946); test: as above
# cathepsin G [8] = target: cathepsin G (UniProt P08311); test: as above; remark: listed apart in the source
# chymase [9] = target: chymase (UniProt P23946); test: as above; remark: listed apart in the source
# UniProt P08311, sequence (P08311 21-244): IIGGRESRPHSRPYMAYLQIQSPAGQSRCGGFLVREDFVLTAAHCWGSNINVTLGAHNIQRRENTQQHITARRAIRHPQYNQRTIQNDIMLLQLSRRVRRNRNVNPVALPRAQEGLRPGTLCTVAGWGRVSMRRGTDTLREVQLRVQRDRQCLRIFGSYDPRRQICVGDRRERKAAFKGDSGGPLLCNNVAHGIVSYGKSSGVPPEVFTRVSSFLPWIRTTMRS
# UniProt P23946, sequence (P23946 22-247): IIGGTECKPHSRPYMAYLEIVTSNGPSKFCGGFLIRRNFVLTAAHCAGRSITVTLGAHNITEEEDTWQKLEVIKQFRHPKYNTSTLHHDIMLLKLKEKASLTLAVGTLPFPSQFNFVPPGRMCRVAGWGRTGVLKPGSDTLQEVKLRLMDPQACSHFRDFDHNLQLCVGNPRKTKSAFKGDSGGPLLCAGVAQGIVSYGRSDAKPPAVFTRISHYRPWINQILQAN
# UniProt P35030, sequence (P35030 81-304): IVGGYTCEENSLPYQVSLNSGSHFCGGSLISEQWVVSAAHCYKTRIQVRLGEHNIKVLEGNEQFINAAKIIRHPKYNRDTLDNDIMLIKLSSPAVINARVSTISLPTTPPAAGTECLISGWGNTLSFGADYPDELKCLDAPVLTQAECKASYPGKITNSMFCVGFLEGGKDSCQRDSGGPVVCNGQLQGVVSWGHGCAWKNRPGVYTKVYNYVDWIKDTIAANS
substance,measurement,setting,value
recombinant Ixodes scapularis nymph tick saliva serpin 41 (rIxsS41) (natural protein),"inhibition of enzymatic activity (chromogenic substrate hydrolysis), rIxsS41 1 µM, cathepsin G 154.4 nM, pre-incubated 15 min at 37°C",cathepsin G [1],100%
same,"inhibition of enzymatic activity (chromogenic substrate hydrolysis), rIxsS41 1 µM, chymase 34.2 nM, pre-incubated 15 min at 37°C",chymase [2],100%
same,"inhibition of enzymatic activity (chromogenic substrate hydrolysis), rIxsS41 1 µM, chymotrypsin 25.7 nM, pre-incubated 15 min at 37°C",chymotrypsin,100%
same,"inhibition of enzymatic activity (chromogenic substrate hydrolysis), rIxsS41 1 µM, pancreatic trypsin 0.5 nM, pre-incubated 15 min at 37°C",pancreatic trypsin,100%
same,"inhibition of enzymatic activity (chromogenic substrate hydrolysis), rIxsS41 1 µM, thrombin 19.8 nM, pre-incubated 15 min at 37°C",thrombin,100%
same,"inhibition of enzymatic activity (chromogenic substrate hydrolysis), rIxsS41 1 µM, trypsin IV 12.5 nM, pre-incubated 15 min at 37°C",trypsin IV,100%
same,"C48/80-induced (chymase-mediated) paw edema in BALB/c mice, co-injection of C48/80 (1 µg) with rIxsS41 (25 µg); the chymase is the mouse's own",chymase [3],85%
same,stoichiometry of inhibition (SI),cathepsin G [4],2.2
same,stoichiometry of inhibition (SI),chymase [5],2.8
same,ka (second-order rate constant of inhibition),cathepsin G [6],2400 M⁻¹ s⁻¹
same,ka (second-order rate constant of inhibition),chymase [7],6600 M⁻¹ s⁻¹
same,ka (second-order rate constant of inhibition),cathepsin G [8],1700 M⁻¹ s⁻¹
same,ka (second-order rate constant of inhibition),chymase [9],2400 M⁻¹ s⁻¹
